In test [1] the target is T1, metavinculin-ΔH1 (lacking residues 895–915) (human, UniProt P18206 1-1134, lacking residues 895–915).
T1 construct: human metavinculin, full length (1-1,134) lacking residues 895-915 (α-helix H1): 1-894 joined to 916-1,134; also called MV-ΔH1; source: E. coli BL21-DE3, purified (as full-length metavinculin); not shown: His8, N-terminal, kept
T1 sequence (looked up): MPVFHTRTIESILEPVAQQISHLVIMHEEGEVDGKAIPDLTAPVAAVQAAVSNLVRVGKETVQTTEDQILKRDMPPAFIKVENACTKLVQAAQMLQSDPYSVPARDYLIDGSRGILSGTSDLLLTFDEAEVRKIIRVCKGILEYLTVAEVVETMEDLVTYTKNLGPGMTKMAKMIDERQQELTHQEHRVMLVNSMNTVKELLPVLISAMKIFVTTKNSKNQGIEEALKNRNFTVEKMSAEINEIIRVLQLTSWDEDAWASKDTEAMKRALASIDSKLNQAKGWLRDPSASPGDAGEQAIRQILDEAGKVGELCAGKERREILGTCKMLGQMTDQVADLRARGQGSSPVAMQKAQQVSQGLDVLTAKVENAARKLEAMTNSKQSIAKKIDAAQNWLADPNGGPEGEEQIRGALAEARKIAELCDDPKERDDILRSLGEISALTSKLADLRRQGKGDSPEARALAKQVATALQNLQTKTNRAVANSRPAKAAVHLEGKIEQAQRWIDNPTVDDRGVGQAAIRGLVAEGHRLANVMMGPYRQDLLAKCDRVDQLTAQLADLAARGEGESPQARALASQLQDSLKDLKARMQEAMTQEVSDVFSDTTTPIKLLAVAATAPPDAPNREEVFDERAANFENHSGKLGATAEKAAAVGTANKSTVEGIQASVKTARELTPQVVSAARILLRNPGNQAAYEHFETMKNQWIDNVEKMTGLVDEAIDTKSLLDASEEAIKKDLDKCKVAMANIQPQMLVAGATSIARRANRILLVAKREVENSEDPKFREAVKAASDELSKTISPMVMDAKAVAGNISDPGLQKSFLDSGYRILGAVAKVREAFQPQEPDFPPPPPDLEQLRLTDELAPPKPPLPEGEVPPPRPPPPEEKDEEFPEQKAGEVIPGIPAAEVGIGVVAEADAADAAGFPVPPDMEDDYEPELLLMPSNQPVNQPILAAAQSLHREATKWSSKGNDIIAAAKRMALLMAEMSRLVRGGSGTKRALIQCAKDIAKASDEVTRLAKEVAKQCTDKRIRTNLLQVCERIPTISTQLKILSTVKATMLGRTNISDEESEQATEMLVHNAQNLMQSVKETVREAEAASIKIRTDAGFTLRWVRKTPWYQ
In words: pull-down; GST-Vt (0.5 µM) on GST-Sepharose beads, with or without pre-incubation with 5 µM PIP2; 15 µM His8-tagged metavinculin or deletion mutant pre-activated with talin-VBS3, 1 hr 37°C; 20 mM Tris-HCl pH 8, 150 mM NaCl; eluted with glutathione, SDS-PAGE, Western blot. Conditions: both partners purified. On the technique in general: A western blot detects proteins with antibodies after separation by electrophoresis.

Test [2] has as its target T2, metavinculin-ΔH1ΔH1′ (lacking residues 895–915 and 963–983) (human, UniProt P18206 1-1134, lacking residues 895–915 | lacking residues 963–983).
T2 construct: human metavinculin, full length (1-1,134) lacking residues 895-915 (H1) and 963-983 (H1′); source: E. coli BL21-DE3, purified (as full-length metavinculin); not shown: His8, N-terminal, kept
T2 sequence (looked up): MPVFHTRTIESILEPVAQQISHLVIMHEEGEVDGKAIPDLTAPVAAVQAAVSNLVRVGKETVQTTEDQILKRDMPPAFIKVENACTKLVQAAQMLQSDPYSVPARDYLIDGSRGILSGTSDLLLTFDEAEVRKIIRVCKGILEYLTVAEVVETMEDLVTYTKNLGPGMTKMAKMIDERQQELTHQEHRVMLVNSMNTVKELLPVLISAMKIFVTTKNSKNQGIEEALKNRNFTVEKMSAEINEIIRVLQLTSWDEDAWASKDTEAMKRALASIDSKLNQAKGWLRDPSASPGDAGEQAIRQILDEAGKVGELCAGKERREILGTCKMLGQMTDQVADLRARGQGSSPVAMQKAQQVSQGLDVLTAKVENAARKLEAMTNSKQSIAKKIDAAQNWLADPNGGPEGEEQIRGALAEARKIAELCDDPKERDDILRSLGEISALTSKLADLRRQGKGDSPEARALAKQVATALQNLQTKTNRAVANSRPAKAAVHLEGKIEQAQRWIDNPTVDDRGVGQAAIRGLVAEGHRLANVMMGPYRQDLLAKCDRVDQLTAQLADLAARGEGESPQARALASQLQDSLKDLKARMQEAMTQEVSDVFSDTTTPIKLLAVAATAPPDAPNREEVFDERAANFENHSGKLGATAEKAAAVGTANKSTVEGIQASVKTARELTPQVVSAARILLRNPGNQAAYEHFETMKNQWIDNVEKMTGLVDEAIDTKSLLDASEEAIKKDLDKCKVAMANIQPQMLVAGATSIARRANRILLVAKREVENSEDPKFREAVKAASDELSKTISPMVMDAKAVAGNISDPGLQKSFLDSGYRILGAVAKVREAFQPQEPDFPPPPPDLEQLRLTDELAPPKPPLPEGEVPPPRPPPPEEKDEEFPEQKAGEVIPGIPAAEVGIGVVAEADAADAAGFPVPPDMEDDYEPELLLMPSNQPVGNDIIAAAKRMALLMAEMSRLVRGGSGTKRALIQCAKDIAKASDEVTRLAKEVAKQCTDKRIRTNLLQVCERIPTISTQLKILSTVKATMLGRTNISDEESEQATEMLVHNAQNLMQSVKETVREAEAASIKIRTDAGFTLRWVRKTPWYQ
The description is as above. Conditions: both partners purified.

B1: GST tagged vinculin tail domain (GST-Vt; residues 879–1,066) (domain or fragment, human, UniProt P18206-2 879-1066, looked up)
chain: EEKDEEFPEQKAGEVINQPMMMAARQLHDEARKWSSKGNDIIAAAKRMALLMAEMSRLVRGGSGTKRALIQCAKDIAKASDEVTRLAKEVAKQCTDKRIRTNLLQVCERIPTISTQLKILSTVKATMLGRTNISDEESEQATEMLVHNAQNLMQSVKETVREAEAASIKIRTDAGFTLRWVRKTPWYQ
notes: human vinculin tail domain, residues 879-1,066 of vinculin (1,066-residue isoform), cloned in pGEX-4T-1; source: E. coli BL21-DE3, purified (GSTrap FF, Superdex 75)
In the case of B1, the binding result in test [1] and in test [2] was “binds” each time.

(Values after PMC2873289, “A Helix Replacement Mechanism Directs Metavinculin Functions” (PLoS ONE, 2010).)
